# Laboratory results as given in US20050043264.
# T1: Drosophila Ena (overexpressed in BG2-c2 cells), Q8T4F7
# T1 chain: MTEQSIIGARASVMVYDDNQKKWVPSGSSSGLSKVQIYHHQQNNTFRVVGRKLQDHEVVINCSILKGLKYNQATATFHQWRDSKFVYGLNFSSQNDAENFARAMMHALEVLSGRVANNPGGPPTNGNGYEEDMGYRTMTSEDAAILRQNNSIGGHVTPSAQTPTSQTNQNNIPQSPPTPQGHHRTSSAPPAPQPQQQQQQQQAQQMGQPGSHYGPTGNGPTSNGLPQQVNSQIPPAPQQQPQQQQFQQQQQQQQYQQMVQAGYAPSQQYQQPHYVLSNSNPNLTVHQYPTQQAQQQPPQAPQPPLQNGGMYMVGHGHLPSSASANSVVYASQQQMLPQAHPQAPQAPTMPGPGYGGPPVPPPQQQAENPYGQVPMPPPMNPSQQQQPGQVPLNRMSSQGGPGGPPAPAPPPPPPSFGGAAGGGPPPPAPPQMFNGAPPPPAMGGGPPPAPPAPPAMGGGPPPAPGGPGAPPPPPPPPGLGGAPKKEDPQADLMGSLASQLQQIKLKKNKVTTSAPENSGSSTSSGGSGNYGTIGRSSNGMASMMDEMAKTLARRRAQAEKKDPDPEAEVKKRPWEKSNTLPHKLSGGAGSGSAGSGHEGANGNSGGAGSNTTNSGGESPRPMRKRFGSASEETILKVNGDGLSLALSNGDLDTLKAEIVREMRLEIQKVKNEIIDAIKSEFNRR
# B1: Drosophila Abl kinase (endogenous, BG2-c2 neuronal cells) (protein)
# chain: MGAQQGKDRGAHSGGGGSGAPVSCIGLSSSPVASVSPHCISSSSGVSSAPLGGGSTLRGSRIKSSSSGVASGSGSGGGGGGSGSGLSQRSGGHKDARCNPTVGLNIFTEHNEALLQSRPLPHIPAGSTAASLLADAAELQQHQQDSGGLGLQGSSLGGGHSSTTSVFESAHRWTSKENLLAPGPEEDDPQLFVALYDFQAGGENQLSLKKGEQVRILSYNKSGEWCEAHSDSGNVGWVPSNYVTPLNSLEKHSWYHGPISRNAAEYLLSSGINGSFLVRESESSPGQRSISLRYEGRVYHYRISEDPDGKVFVTQEAKFNTLAELVHHHSVPHEGHGLITPLLYPAPKQNKPTVFPLSPEPDEWEICRTDIMMKHKLGGGQYGEVYEAVWKRYGNTVAVKTLKEDTMALKDFLEEAAIMKEMKHPNLVQLIGVCTREPPFYIITEFMSHGNLLDFLRSAGRETLDAVALLYMATQIASGMSYLESRNYIHRDLAARNCLVGDNKLVKVADFGLARLMRDDTYTAHAGAKFPIKWTAPEGLAYNKFSTKSDVWAFGVLLWEIATYGMSPYPAIDLTDVYHKLDKGYRMERPPGCPPEVYDLMRQCWQWDATDRPTFKSIHHALEHMFQESSITEAVEKQLNANATSASSSAPSTSGVATGGGATTTTAASGCASSSSATASLSLTPQMVKKGLPGGQALTPNAHHNDPHQQQASTPMSETGSTSTKLSTFSSQGKGNVQMRRTTNKQGKQAPAPPKRTSLLSSSRDSTYREEDPANARCNFIDDLSTNGLARDINSLTQRYDSETDPAADPDTDATGDSLEQSLSQVIAAPVTNKMQHSLHSGGGGGGIGPRSSQQHSSFKRPTGTPVMGNRGLETRQSKRSQLHSQAPGPGPPSTQPHHGNNGVVTSAHPITVGALDVMNVKQVVNRYGTLPKGARIGAYLDSLEDSSEAAPALPATAPSLPPANGHATPPAARLNPKASPIPPQQMIRSNSSGGVTMQNNAAASLNKLQRHRTTTEGTMMTFSSFRAGGSSSSPKRSASGVASGVQPALANLEFPPPPLDLPPPPEEFEGGPPPPPPAPESAVQAIQQHLHAQLPNNGNISNGNGTNNNDSSHNDVSNIAPSVEEASSRFGVSLRKREPSTDSCSSLGSPPEDLKEKLITEIKAAGKDTAPASHLANGSGIAVVDPVSLLVTELAESMNLPKPPPQQQQKLTNGNSTGSGFKAQLKKVEPKKMSAPMPKAEPANTIIDFKAHLRRVDKEKEPATPAPAPATVAVANNANCNTTGTLNRKEDGSKKFSQAMQKTEIKIDVTNSNVEADAGAAGEGDLGKRRSTGSINSLKKLWEQQPPAPDYATSTILQQQPSVVNGGGTPNAQLSPKYGMKSGAINTVGTLPAKLGNKQPPAAPPPPPPNCTTSNSSTTSISTSSRDCTSRQQASSTIKTSHSTQLFTDDEEQSHTEGLGSGGQGSADMTQSLYEQKPQIQQKPAVPHKPTKLTIYATPIAKLTEPASSASSTQISRESILELVGLLEGSLKHPVNAIAGSQWLQLSDKLNILHNSCVIFAENGAMPPHSKFQFRELVTRVEAQSQHLRSAGSKNVQDNERLVAEVGQSLRQISNALNR
# Legend:
# [1] = biological target: Drosophila Cdk5 (endogenous, BG2-c2 neuronal cells), P48609
# Sequence of Drosophila Cdk5 (endogenous, BG2-c2 neuronal cells), P48609 (P48609 whole entry): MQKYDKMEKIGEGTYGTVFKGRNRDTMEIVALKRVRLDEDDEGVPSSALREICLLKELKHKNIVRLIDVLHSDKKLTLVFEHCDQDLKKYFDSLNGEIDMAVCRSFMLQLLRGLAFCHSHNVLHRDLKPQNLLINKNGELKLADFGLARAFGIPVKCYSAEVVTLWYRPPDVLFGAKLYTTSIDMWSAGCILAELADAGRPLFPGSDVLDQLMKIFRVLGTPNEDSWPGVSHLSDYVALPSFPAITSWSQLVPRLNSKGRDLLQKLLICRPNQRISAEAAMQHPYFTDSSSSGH
# [2] = biological target: T1, Drosophila Ena (overexpressed in BG2-c2 …)
protein,measurement,setting,value
B1,Cdk5-Y15 phosphorylation (Cdk5-pY15) and Cdk5 kinase activity after STI571 or dsRNA-abl,[1],both the Cdk5-pY15 and kinase activity were diminished
same,tyrosine-phosphorylation level of Ena,[2],Ena phosphorylation levels were elevated by Aβ42 but reduced by STI571
